Reference: patent publication US20230095004 (Aptitude Medical Systems, Inc., published 2023)

T1: VEGF-165 (VEGF-A) (Homo sapiens)
T1 chain: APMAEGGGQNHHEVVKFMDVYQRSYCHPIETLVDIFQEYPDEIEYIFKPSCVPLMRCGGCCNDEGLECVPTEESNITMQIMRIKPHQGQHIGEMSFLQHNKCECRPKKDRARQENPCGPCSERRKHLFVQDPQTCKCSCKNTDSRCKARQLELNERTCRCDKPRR


Tests used:
Angiopoietin-2 (Ang2) = Angiopoietin-2 (Ang2) (Homo sapiens, UniProt O15123 O15123:19-496); test: flow; conditions: tags: His tag; R&D Systems 623-AN
VEGF-165 (VEGF-A) [1] = biological target: T1, VEGF-165 (VEGF-A); test: flow; conditions: tags: recombinant; chain copies: 2
VEGF-121 (VEGF-A) = VEGF-121 (VEGF-A) (Homo sapiens, UniProt P15692 SEQ:1-121); test: flow; PBSMCT, 37 C; conditions: tags: recombinant; chain copies: 2; label: biotin
VEGF-165 (VEGF-A) [2] = biological target: T1, VEGF-165 (VEGF-A); test: flow; PBSMCT, 37 C; conditions: tags: recombinant; chain copies: 2; label: biotin

Sequence of Angiopoietin-2 (Ang2) (O15123 19-496, one chain of several): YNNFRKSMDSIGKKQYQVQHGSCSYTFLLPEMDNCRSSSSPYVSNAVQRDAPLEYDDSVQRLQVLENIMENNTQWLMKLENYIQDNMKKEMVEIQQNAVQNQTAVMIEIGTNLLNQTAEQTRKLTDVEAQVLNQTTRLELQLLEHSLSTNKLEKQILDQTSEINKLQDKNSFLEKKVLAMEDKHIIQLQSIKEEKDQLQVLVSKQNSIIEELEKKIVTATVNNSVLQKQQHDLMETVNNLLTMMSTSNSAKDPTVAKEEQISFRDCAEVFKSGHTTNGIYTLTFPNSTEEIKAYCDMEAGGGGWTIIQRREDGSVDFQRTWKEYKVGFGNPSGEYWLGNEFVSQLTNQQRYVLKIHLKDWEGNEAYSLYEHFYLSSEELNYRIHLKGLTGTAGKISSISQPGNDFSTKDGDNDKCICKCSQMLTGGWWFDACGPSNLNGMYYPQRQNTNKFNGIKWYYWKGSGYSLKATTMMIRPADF

Row | Binder | Kd (Angiopoietin-2 (Ang2)) [nM] | Kd (VEGF-165 (VEGF-A) [1]) [nM] | Kd (VEGF-121 (VEGF-A)) [nM] | Kd (VEGF-165 (VEGF-A) [2]) [nM]
1 | AMSB107.4 (ssRNA, 2'-F all nucleotides) RNA: GCAUGCUUUUACCAGUGAGUCGGAUCUCCGCAUAGAUAAGCCAACAAACGUACAUUCUCUGUUAGUAUUUUCUGCG | 0.237 | 0.225 | – | –
2 | AMSB107.9 (ssRNA, 2'-F all nucleotides) RNA: UGCAUGCAUUACCAGUGAGUCGGAUCUCCGCAUAGAUAAGCCAACAAACGUACAUUCUCUGUUAGUAUUUUCUGCG | 0.15 | 0.151 | – | –
3 | AMSB107.8 (ssRNA, 2'-F all nucleotides) RNA: UUUUGCAUGCAUUUUACCAGUGAGUCGGAUCUCCGCAUAGAUAAGCCAACAAACGUACAUUCUCUGUUAGUAUUUUCUGCG | 0.095 | 0.048 | – | –
4 | CGUAGCAUUUUGCCAGUGAGUCGGAUCUCCGCAUAUCUGCG (ssRNA, 2'-F all nucleotides) [AMS0433.8] | – | – | 11 | 8.2
5 | CACAGAGAACUGUGUGCCAGUGAGUCGGAUCUCCGCAUAUCUGCG (ssRNA, 2'-F all nucleotides) [AMS0433.7] | – | – | 13.8 | 9.76
6 | AMS0433.1 (ssRNA, 2'-F all nucleotides) RNA: ACCCUUGCUUGCGUAGCAUUUUACCAGUGAGUCGGAUCUCCGCAUAUCUGCG | – | – | 1.12 | 0.666
7 | AMSB107.7 (ssRNA, 2'-F all nucleotides) RNA: UGCAUGCACAGUGAGUCGGAUCUCCGCAUAGAUAAGCCAACAAACGUACAUUCUCUGUUAGUAUUUUCUGCG | 0.085 | – | – | –
8 | AMSB107.14 (ssRNA, 2'-F all nucleotides) RNA: UGCACUGCAUUUUACCAGUGAGUCGGAUCUCCGCAUAGAUAAGCCAACAAACGUACAUUCUCUGUUAGUAUUUUCUGCG | 0.928 | 0.643 | – | –
9 | AMSB107 (ssRNA, 2'-F all nucleotides) RNA: UGCAUGCAUUUUACCAGUGAGUCGGAUCUCCGCAUAGAUAAGCCAACAAACGUACAUUCUCUGUUAGUAUUUUCUGCG | 0.087 | 0.054 | – | –
10 | AMSB107.12 (ssRNA, 2'-F all nucleotides) RNA: CUGUACAGUUUUACCAGUGAGUCGGAUCUCCGCAUAGAUAAGCCAACAAACGUACAUUCUCUGUUAGUAUUUUCUGCG | 0.227 | 0.606 | – | –
11 | AMSB107.21 (ssRNA, 2'-F; 2'-OMe in stem nucleotides (5' UGCAUGCA, internal CGCA, 3' UGCG)) RNA: UGCAUGCAUUUUACCAGUGAGUCGGAUCUCCGCAUAGAUAAGCCAACAAACGUACAUUCUCUGUUAGUAUUUUCUGCG | 0.083 | 0.052 | – | –
12 | AMSB107.18 (ssRNA, 2'-F; LNA at selected positions of the VEGF consensus as printed) RNA: UGCAUGCAUUUUACCAGUGAGUCGGAUCUCCGCAUAGAUAAGCCAACAAACGUACAUUCUCUGUUAGUAUUUUCUGCG | 0.079 | 0.608 | – | –
13 | AMSB107.20 (ssRNA, 2'-F; LNA in stem nucleotides as printed) RNA: UGCAUGCAUUUUACCAGUGAGUCGGAUCUCCGCAUAGAUAAGCCAACAAACGUACAUUCUCUGUUAGUAUUUUCUGCG | 0.253 | 0.234 | – | –
14 | AMSB107.19 (ssRNA, 2'-F; LNA at selected positions of the VEGF consensus as printed) RNA: UGCAUGCAUUUUACCAGUGAGUCGGAUCUCCGCAUAGAUAAGCCAACAAACGUACAUUCUCUGUUAGUAUUUUCUGCG | 0.083 | – | – | –
15 | AMS0433.5 (ssRNA, 2'-F all nucleotides) RNA: CACCAUGCUUGCGUAGCAUCAUCCAGUGAGUCGGAUCUCCGCAUAUCUGCG | – | – | 1.19 | 0.739
16 | AMSB107.2 (ssRNA, 2'-F all nucleotides) RNA: UGCCAGUGAGUCGGAUCUCCACAGUAGAUAAGCCAACAAACGUACAUUCUCUGUUAGUAUUUUCCUGUG | 0.82 | 12.9 | – | –
17 | CCCCAUCUGCGAAGCAGUCAGCCAGUGAGUCGGAUCUCCGCAUAUCUGCG (ssRNA, 2'-F all nucleotides) [AMS0433.6] | – | – | 0.898 | 0.674
18 | AMSB107.0 (ssRNA, 2'-F all nucleotides) RNA: ACCCUUGCUUGCGUAGCAUUUUACCAGUGAGUCGGAUCUCCGCAUAGAUAAGCCAACAAACGUACAUUCUCUGUUAGUAUUUUCUGCG | 0.222 | 1.29 | – | –
19 | UGCCAGUGAGUCGGAUCUCCUGUGAGAACACAG (ssRNA, 2'-F all nucleotides) [AMS0433.10] | – | – | 11.4 | 8.47
20 | AMSB107.11 (ssRNA, 2'-F all nucleotides) RNA: UGCAUGCAUUUUCCAGUGAGUCGGAUCUCCGCAUAGAUAAGCCAACAAACGUACAUUCUCUGUUAGUAUUUUCUGCG | 0.095 | 0.057 | – | –
21 | AMSB107.6 (ssRNA, 2'-F all nucleotides) RNA: UGCAUGCAACCAGUGAGUCGGAUCUCCGCAUAGAUAAGCCAACAAACGUACAUUCUCUGUUAGUAUUUUCUGCG | 0.074 | 2.34 | – | –
22 | AMSB107.1 (ssRNA, 2'-F all nucleotides) RNA: UGCCAGUGAGUCGGAUCUCCGCAUAGAUAAGCCAACAAACGUACAUUCUCUGUUAGUAUUUUCUGCG | 0.885 | 13.9 | – | –
23 | AMSB108.0 (ssRNA, 2'-F all nucleotides) RNA: CGCAUAGAUAAGCCAACAAACGUACAUUCUCUGUUAGUAUUUUCUGCGUGCCAGUGAGUCGGAUCUCCACAGUUCUCUGUG | 0.52 | 15.7 | – | –
24 | AMSB107.16 (ssRNA, 2'-F all nucleotides) RNA: UGCAUGCAUUUUACCAGUGAGUCGGAUCUCUUUCGCAUAGAUAAGCCAACAAACGUACAUUCUCUGUUAGUAUUUUCUGCG | 0.08 | – | – | –
25 | AMSB107.5 (ssRNA, 2'-F all nucleotides) RNA: AUGCAUGCAUUUUUACCAGUGAGUCGGAUCUCCGCAUAGAUAAGCCAACAAACGUACAUUCUCUGUUAGUAUUUUCUGCG | 0.096 | 0.052 | – | –
26 | AMSB107.10 (ssRNA, 2'-F all nucleotides) RNA: UGCAUGCAUUUUUUACCAGUGAGUCGGAUCUCCGCAUAGAUAAGCCAACAAACGUACAUUCUCUGUUAGUAUUUUCUGCG | 0.089 | 0.051 | – | –
27 | AMSB107.13 (ssRNA, 2'-F all nucleotides) RNA: CCGGUACCGGUUUUACCAGUGAGUCGGAUCUCCGCAUAGAUAAGCCAACAAACGUACAUUCUCUGUUAGUAUUUUCUGCG | 0.089 | 0.05 | – | –
28 | AMSB107.15 (ssRNA, 2'-F all nucleotides) RNA: UGCAUCUGCAUUUUACCAGUGAGUCGGAUCUCCGCAUAGAUAAGCCAACAAACGUACAUUCUCUGUUAGUAUUUUCUGCG | 0.778 | 0.765 | – | –
29 | AMSB107.17 (ssRNA, 2'-F all nucleotides) RNA: GCUGUACAGCUUUUACCAGUGAGUCGGAUCUCCGCAUAGAUAAGCCAACAAACGUACAUUCUCUGUUAGUAUUUUCUGCG | 0.086 | 0.198 | – | –
30 | AMS0433.11 (ssRNA, 2'-F all nucleotides) RNA: CACAGAGAACUGUGCCUAGCAUUUUGCCAGUGAGUCGGAUCUCCGCAUAUCUGCG | – | – | 23.2 | 16.4
